# Measured values from the supplement of paper PMC9170038.
# Tested on: MS2 coat protein
# Experiment: apparent KD of MS2 coat protein; higher = weaker reporter binding
# Conditions: Eterna round: R107
# Description: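 RNA-MaP round R107: designed RNA switches with theophylline, tryptophan, arginine or FMN aptamers are transcribed on-chip within common flanks. They are titrated with SNAP-549-labelled MS2 coat protein in RNA-MaP buffer (100 mM Tris pH 7.5, 80 mM KCl, 4 mM MgCl2), without ligand or with the indicated ligand. Median apparent KD per design.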
# [1] = input ligand: theophylline 20 uM
# [2] = input ligand: tryptophan 2.4 mM
# [3] = input ligand: theophylline 2 mM
sequence,measurement,setting,value
AAAGGCGGGCAGGAUACCAGCGCUAACAUGAGGAUCACCCAUGUACAAAUAAUAACAUGGUGCCCUUGGCAGCCUGGGCGUCUGC [Usedlati],apparent KD of MS2 coat protein,input ligand: arginine 13.2 mM,26.6 nM
same,apparent KD of MS2 coat protein,[1],150 nM
same,apparent KD of MS2 coat protein,[2],61.3 nM
AACAUGAGGAUCACCCAUGUGUCCCUUGAUACCAGUCCCAUGUGAGACCCUUGGCAGCAAACAUGAGGAUCACCCAUGUCCCAUG [Same State Theophylline A 3],apparent KD of MS2 coat protein,input ligand: arginine 13.2 mM,60.9 nM
same,apparent KD of MS2 coat protein,[1],119 nM
same,apparent KD of MS2 coat protein,[2],90.2 nM
AGAGUUAGACAAAAGUCUAGCUCACCAGAAGGAGCGUCCGAAAGGACAGGUAGGUCGCUGGUGCACGAGGAUCACCCGUGUUCCU [ArgAS 21 #OpenEnded #AlternativeMS2],apparent KD of MS2 coat protein,input ligand: arginine 13.2 mM,57.9 nM
same,apparent KD of MS2 coat protein,input ligand: none,80.6 nM
same,apparent KD of MS2 coat protein,[1],90.2 nM
same,apparent KD of MS2 coat protein,[3],118 nM
same,apparent KD of MS2 coat protein,[2],67.3 nM
AUGUCAUUGGUGCAGCUGUUAAAUGGCGAUACCAGCGUGGAAACACGCCCUUGGCAGCGCCAAAACAUGAGGAUCACCCAUGUUA [Zlin],apparent KD of MS2 coat protein,input ligand: arginine 13.2 mM,23 nM
same,apparent KD of MS2 coat protein,[1],54.6 nM
same,apparent KD of MS2 coat protein,[2],27.1 nM
GGGUGUGAUCCGGAUACCAGUGAACAUGAGGAUCACCCAUGUGACCUGAGAUCGGCUCUUCACCCUUGGCAGCCGCGGUCGCAGG [Same State Theophylline B GF14],apparent KD of MS2 coat protein,input ligand: arginine 13.2 mM,11.4 nM
same,apparent KD of MS2 coat protein,input ligand: none,11.5 nM
same,apparent KD of MS2 coat protein,[1],18.6 nM
same,apparent KD of MS2 coat protein,[3],10.7 nM
same,apparent KD of MS2 coat protein,[2],10 nM
GGUUGGUUUAUAUAUAGAUUGAUUACUGAAGGAGCGGGAAAUAACCCAGGUAGGUCGCAGAGAUCCACAUGAGGAUCACCCAUGU [!0.I],apparent KD of MS2 coat protein,input ligand: arginine 13.2 mM,34.2 nM
same,apparent KD of MS2 coat protein,input ligand: none,39.5 nM
same,apparent KD of MS2 coat protein,[1],50.6 nM
same,apparent KD of MS2 coat protein,[3],53 nM
same,apparent KD of MS2 coat protein,[2],42.9 nM
UUUAAUUUAAUAGAUACCAGCUAAUAAUAAUCCCGGAGGACAUGAGGAUCACCCAUGUGGAGCCCUUGGCAGCUAAAAUAAAUUU [Exclusion - Theophylline B],apparent KD of MS2 coat protein,input ligand: arginine 13.2 mM,20.1 nM
same,apparent KD of MS2 coat protein,input ligand: none,32.9 nM
same,apparent KD of MS2 coat protein,[1],63.7 nM
same,apparent KD of MS2 coat protein,[3],22.4 nM
same,apparent KD of MS2 coat protein,[2],28.9 nM
UAACAUGAGGAUCACCCAUGUUUGGAGAAACGAGGACCGGUACGGCCGCCACUCGAGGAGUGGAUGAGAAGUGGGAUAGAGUGAU [Same State Trp A GF6],apparent KD of MS2 coat protein,input ligand: arginine 13.2 mM,19.2 nM
same,apparent KD of MS2 coat protein,input ligand: none,19.6 nM
same,apparent KD of MS2 coat protein,[1],19.6 nM
same,apparent KD of MS2 coat protein,[3],17.5 nM
same,apparent KD of MS2 coat protein,[2],15.1 nM
UCUGGGUGCGCAAGGACCUGGAGUUGCGAUACCAGCACGGUAACGUGCCCUUGGCAGCGCACAUGAGGAUCACCCAUGUGGUGUU [#1 Exclusion - Theophylline A Attempt #18 (HarryS)],apparent KD of MS2 coat protein,input ligand: arginine 13.2 mM,65.6 nM
same,apparent KD of MS2 coat protein,[1],247 nM
same,apparent KD of MS2 coat protein,[2],204 nM
CAUACUUUAGUAUGACGUGUGGGCAGUGAUACCAGAUACGAAAGUAUCCCUUGGCAGCACAACAUGAGGAUCACCCAUGUAAUUA [Theophylline A 1],apparent KD of MS2 coat protein,input ligand: arginine 13.2 mM,21.9 nM
same,apparent KD of MS2 coat protein,[1],26.6 nM
same,apparent KD of MS2 coat protein,[2],23.1 nM
GGUGAUCCGUAUCACCGGAUCACCGGUGAUACCAGCAUCGAAAGAUGCCCUUGGCAGCACCAACAUGAGGAUCACCCAUGUAAUA [(M)'-(T)'-(M)''-(T1)-(T2)-(M1)-(M2)_Design6b],apparent KD of MS2 coat protein,input ligand: arginine 13.2 mM,69.6 nM
same,apparent KD of MS2 coat protein,[1],62.4 nM
same,apparent KD of MS2 coat protein,[2],143 nM
AAUAACAUGAGGAUCACCCAUGUAAAAGAUACCAGAGUGAUGAUCCUCCCUUGGCAGCUUAACGCUGAUUGGAAACAAUCAGCGA [Mat - Same State Theophlline A - Mod of Eli - D1],apparent KD of MS2 coat protein,input ligand: arginine 13.2 mM,34.1 nM
same,apparent KD of MS2 coat protein,[1],268 nM
same,apparent KD of MS2 coat protein,[2],67.6 nM
UGAACAUGAGGAUCACCCAUGUAGUCAGAUACCAGACACUGCAUGGUCCCUUGGCAGCUGAAGAGCGUUUGCCAAAUAACGUUCA [Theo A SS t4],apparent KD of MS2 coat protein,input ligand: arginine 13.2 mM,52 nM
same,apparent KD of MS2 coat protein,[1],223 nM
same,apparent KD of MS2 coat protein,[2],258 nM
CUGCUACAUGAGGAUCACCCAUGUGGAGAUACCAGCCUGAACGAUGGCCCUUGGCAGCUCUUAGCUGGUGAUCAUAUAUUUCAGA [Zazaat],apparent KD of MS2 coat protein,input ligand: arginine 13.2 mM,25.3 nM
same,apparent KD of MS2 coat protein,[1],68.2 nM
same,apparent KD of MS2 coat protein,[2],28.2 nM
AGUGAUGACCGAAGGAGCGCGGGAAACAUGAGGAUCACCCAUGUACUCCUCAGUGUUAUAACGCAGGUAGGUCGCGGUUAUGGCU [X-ArgiB-ms2@26],apparent KD of MS2 coat protein,input ligand: arginine 13.2 mM,148 nM
same,apparent KD of MS2 coat protein,input ligand: none,180 nM
same,apparent KD of MS2 coat protein,[1],296 nM
same,apparent KD of MS2 coat protein,[3],328 nM
same,apparent KD of MS2 coat protein,[2],279 nM
GACAGAAACUGAAGGAGCGAGGUAAAACGGGAUGAGCAAACAUGAGGAUCACCCAUGUGGCCUCAGGUAGGUCGCAGAAAGAAAC [Exclusion Arginine B GF24],apparent KD of MS2 coat protein,input ligand: arginine 13.2 mM,180 nM
same,apparent KD of MS2 coat protein,input ligand: none,130 nM
same,apparent KD of MS2 coat protein,[1],183 nM
same,apparent KD of MS2 coat protein,[3],123 nM
same,apparent KD of MS2 coat protein,[2],135 nM
